Here are results for 3 molecules from paper PMC9080902 (Journal of thrombosis and haemostasis : JTH, 2021).

The assay has as its target flag-tagged paxillin (UniProt P49023 1-591). The assay is described as follows: BLI.

Sequence of flag-tagged paxillin (P49023 whole entry): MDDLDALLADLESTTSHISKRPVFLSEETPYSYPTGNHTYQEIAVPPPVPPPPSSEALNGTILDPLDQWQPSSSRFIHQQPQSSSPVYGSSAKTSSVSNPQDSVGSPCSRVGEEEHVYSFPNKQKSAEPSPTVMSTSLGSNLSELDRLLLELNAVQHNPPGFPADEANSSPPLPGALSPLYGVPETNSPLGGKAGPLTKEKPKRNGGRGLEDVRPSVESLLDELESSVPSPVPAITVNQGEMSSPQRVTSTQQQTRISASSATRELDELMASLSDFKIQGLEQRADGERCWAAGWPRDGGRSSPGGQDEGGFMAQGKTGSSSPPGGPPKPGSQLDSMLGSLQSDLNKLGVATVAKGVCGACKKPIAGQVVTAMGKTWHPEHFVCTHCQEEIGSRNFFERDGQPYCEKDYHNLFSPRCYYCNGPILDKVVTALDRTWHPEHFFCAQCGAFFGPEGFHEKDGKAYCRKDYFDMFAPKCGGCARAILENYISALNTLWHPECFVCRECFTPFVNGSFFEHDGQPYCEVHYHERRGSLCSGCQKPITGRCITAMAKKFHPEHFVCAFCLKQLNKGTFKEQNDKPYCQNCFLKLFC

B1: GST-fused PH domain of kindlin-2 (374–499) (domain or fragment, UniProt Q96AC1 374-499, looked up)
chain: ELADYIKVFKPKKLTLKGYKQYWCTFKDTSISCYKSKEESSGTPAHQMNLRGCEVTPDVNISGQKFNIKLLIPVAEGMNEIWLRCDNEKQYAHWMAACRLASKGKTMADSSYNLEVQNILSFLKMQ
For B1, the Kd (as a rule, the equilibrium constant for the complex coming apart) is 23.5 µM.

B2: GST-fused PH domain of kindlin-1 (374–496) (domain or fragment, UniProt Q9BQL6 374-496, looked up)
chain: DNLKLFRPKKLLPKAFKQYWFIFKDTSIAYFKNKELEQGEPLEKLNLRGCEVVPDVNVAGRKFGIKLLIPVADGMNEMYLRCDHENQYAQWMAACMLASKGKTMADSSYQPEVLNILSFLRMK
Turning to B2, the equilibrium dissociation constant (Kd) stood at 14.2 µM.

B3: GST-fused PH domain of kindlin-3 (351–476) (domain or fragment, UniProt Q86UX7-2 351-476, looked up)
chain: ELKDHLRIFRPRKLTLKGYRQHWVVFKETTLSYYKSQDEAPGDPIQQLNLKGCEVVPDVNVSGQKFCIKLLVPSPEGMSEIYLRCQDEQQYARWMAGCRLASKGRTMADSSYTSEVQAILAFLSLQ
As to B3, the Kd was determined as 7.6 µM.
